Assay results published in patent publication US20240102068A1, “C-GLYCOSYLTRANSFERASE VARIANTS AND USE THEREOF” (KOREA ADVANCED INSTITUTE OF SCIENCE AND TECHNOLOGY, priority 2021, published 2024).

What was measured:
[1] = test system: FK; assay: dcII production from FK by C-glycosyltransferase candidates and GtCGT mutants in FK-producing E. coli, flask culture; format: cell-based; details: flask culture
Procedure: Flask culture was carried out under the following conditions. Colonies were seeded into 10 mL of LB medium supplemented with appropriate concentrations of antibiotics, followed by culture overnight at 37° C. The culture fluid thus prepared was passaged into a 250 mL baffled flask containing 50 mL of R/2 medium supplemented with 3 g/L yeast extract and 20 g/L glucose (with 0.45 g/L ascorbic acid if necessary), followed by culture at 30° C. and 200 rpm. The composition of R/2 medium (pH 6.8) was as follows (per liter): 2 g of (NH4)2HPO4, 6.75 g of KH2PO4, 0.85 g of citric acid, 0.7 g of MgSO4·7H2O, and 5 ml of trace metal solution (TMS) [10 g of FeSO4·7H2O, 2.25 g of ZnSO4·7H2O, 1 g of CuSO4·5H2O, 0.5 g of MnSO4·5H2O, 0.23 g of Na2B4O7·10H2O, 2 g of CaCl2·2H2O, and 0.1 g of (NH4)6Mo7O24 per liter of 5 M HCl]. When OD600 of the culture fluid reached 0.6-0.8, 1 mM isopropyl β-D-1-thiogalactopyranoside (IPTG) was added to induce exogenous gene expression, followed by culture for 48 hours.
After culture, production analysis was performed under the following conditions. After flask culture, 50 mL of the culture fluid was centrifuged at 4,000 g for 30 minutes, and then the supernatant was desalted and concentrated. Here, Oasis HLB cartridges (Water) were used. The supernatant was concentrated 1-fold for FK, 30-fold for KA, 45-fold for dell, and 200-fold for carminic acid. The concentrated sample was re-dissolved in an appropriate volume of DMSO and impurities were then removed therefrom using a 0.22 μm PTFE filter. The prepared sample was analyzed by MS (LC/MSD VL; Agilent) coupled with HPLC (1100 series; Agilent). An Eclipse XDB-C18 column was used, 0.1% formic acid was used as buffer A, and methanol was used as buffer B. Analysis was performed in an ESI negative mode. For more accurate analysis of carminic acid, LC-MS/MS was performed using an HPLC Triple Quadrupole Mass Spectrometer (LCMS-8050, Shimadzu) (MRM mode).
Flask culture started by seeding colonies from LB agar plates into test tubes containing 10 mL of LB. As such, an appropriate concentration of antibiotics was added, followed by culture overnight at 37° C. at 220 rpm. 1 mL of the seed culture thus prepared was inoculated into a 250 mL baffled flask containing 50 mL of R/2 medium (supplemented with 3 g/L yeast extract and 20 g/L glucose), followed by culture at 30° C. and 200 rpm. The composition of R/2 medium was as follows (pH 6.8, per 1 L): 2 g of (NH4)2HPO4, 6.75 g of KH2PO4, 0.85 g of citric acid, 0.8 g of MgSO4·7H2O, and 5 ml of trace metal solution (TMS). The composition of TMS was as follows (based on 0.1 M HCl, per 1 L): 10 g of FeSO4·7H2O, 2.25 g of ZnSO4·7H2O, 1 g of CuSO4·5H2O, 0.58 g of MnSO4·5H2O, 0.02 g of Na2B4O7·10H2O, 2 g of CaCl2·2H2O, and 0.1 g of (NH4)6Mo7O24·4H2O. When OD600 of the culture fluid reached 0.6-0.8, 0.5 mM IPTG was added to induce exogenous enzyme expression, followed by culture for 48 hours. In all experiments for producing flavokermesic acid, kermesic acid, dcII, and carminic acid, 0.45 g/L of ascorbic acid was further added.
The production of carminic acid (CA) from FK was performed by two biosynthesis pathways, both of which require monooxygenase and C-glycosyltransferase. FK may be oxidized into KA or may be C-glycosylated into dcII. […] In order for the enzyme to have activity, however, it must be glycosylated, and since it also has a transmembrane helix and a signal peptide, successful expression in cells such as E. coli is considered difficult.
For the enzymes selected above, pCDF-DcCGT, pCDF-MiCGT, pCDF-SfCGT, pCDF-EnCGT, pCDF-OsCGT, pCDF-FeCGT, pCDF-GmCGT, pCDF-AvCGT, pCDF-AvCGT, pCDF-ZmCGT, and pCDF-GtCGT were constructed, and all genes except for the iroB gene amplified from genomic DNA of E. coli Nissle using the iroB_gib_F primer and the iroB_gib_R primer were artificially synthesized and inserted into the NdeI site of the pCDFDuet-1 plasmid using Gibson assembly. […]

[2] = test system: aloesone; assay: Aloesin production from aloesone by GtCGT and variants in E. coli BL21(DE3), flask culture; format: cell-based
Procedure: Also, in LC-MS/MS for aloesin analysis, MS (Agilent 6550 iFunnel Q-TOF LC/MS System) coupled with ultra HPLC (UHPLC; 1290 Infinity II LC System; Agilent) was used. Here, an Eclipse-plus C18 column was used, and 0.1% formic acid was used as buffer A, and acetonitrile to which 0.1% formic acid was added was used as buffer B.
Thereafter, in order to test the production of aloesin, the pCDF-GtCGT or pCDF-GtCGT^V93Q/Y193F plasmid was transformed into the BL21(DE3) strain containing pWAS-anti-pabA, pRSF-RpALS, and pBBR1-zwf plasmids, followed by flask culture.
Similarly to the test for increased production of aloesone, RpALS was additionally introduced to increase aloesin production. To this end, pCDF-RpALS-GtCGT^V93Q/Y193F was constructed instead of introducing pCDF-GtCGT^V93Q/Y193F. Specifically, RpALS was amplified from pCDF-RpALS using pCDFDuet F and pCDFDuet R primers, and inserted into the NcoI and BamHI sites of the pCA plasmid through Gibson assembly. Thereafter, four plasmids, namely pRSF-RpALS, pCDF-RpALS-GtCGT^V93Q/Y193F, pWAS-anti-pabA, and pBBR1-zwf, were transformed into E. coli BL21(DE3), which was named an ALS strain.
(§1) Mutagenesis for a specific sequence was performed in the same manner as in Example 2. Here, plasmids containing gene mutants were constructed using pCDF-RpALS-GtCGT^V93Q/Y193F as a template and using primer pairs shown in Table 11 below. The plasmids thus constructed were transformed into the BL21 (DE3) strain along with three plasmids, namely pWAS-anti-pabA, pRSF-RpALS, and pBBR1-zwf, followed by flask culture under the same conditions as in Example 3 using the strains thus constructed. The concentration of aloesin produced was measured in an MRM mode of the HPLC Triple Quadrupole Mass Spectrometer (LCMS-8050, Shimadzu) of the KAIST Biocore Center.
as §1, with “13” for “11”

[3] = test system: apigenin; assay: Conversion of apigenin to vitexin by intracellularly expressed enzyme, flask culture; format: cell-based, E. coli
Procedure: (§2) As such, 70 μM luteolin, 0.5 mM naringenin, or 185.2 μM apigenin was co-administered, followed by culture for an additional 36 hours. The amounts of substrate and product were analyzed by LC-MS. Flask culture was carried out in a 250 mL baffled flask containing 50 mL of R/2 medium (supplemented with 3 g/L yeast extract and 20 g/L glucose), and culture was performed at 30° C. and 200 rpm.

[4] = test system: naringenin; assay: Conversion of naringenin to naringenin-6-C-glucoside by intracellularly expressed enzyme, flask culture; format: cell-based, E. coli
Procedure: as §2

[5] = test system: luteolin; assay: Conversion of luteolin to isoorientin by intracellularly expressed enzyme, flask culture; format: cell-based, E. coli
Procedure: as §2

[6] = KM and Vmax of purified GtCGT enzymes, FK converted into dcII, UDP-Glo Glycosyltransferase Assay; format: biochemical, Gentiana triflora; details: substrate FK
Procedure: The purified enzyme was buffer-exchanged with an enzyme storage solution (50 mM HEPES, 20% glycerol, pH 7.5) using Amicon Ultra-15 Centrifugal Filters (regenerated cellulose, 50,000 NMWL; Merck), and in order to calculate KM and Vmax values, FK was converted into dcII using the purified enzyme. Here, a UDP-Glo Glycosyltransferase Assay Kit (Promega) was used to determine the extent of reaction. Since this kit enables measurement of free UDP generated as a reaction byproduct by luminescence, 200 μL of an enzyme reaction solution containing 0.1 μM enzyme and various concentrations of FK (50 mM HEPES, 0.1 mM UDP-glucose, 5 mM MgCl2, pH 7.5) was allowed to react at 25° C. for 1 hour, 25 μL thereof was taken out, and the amount of emitted light was measured using the kit.

B1: GtCGT^V93Q/Y193F: GtCGT variant with substitutions V93Q and Y193F (SEQ ID NO: 61) (protein)
chain: MGSLTNNDNLHIFLVCFIGQGVVNPMLRLGKAFASKGLLVTLSAPEIVGTEIRKANNLNDDQPIKVGSGMIRFEFFDDGWESVNGSKPFDVWQYINHLDQTGRQKLPIMLKKHEETGTPVSCLILNPLVPWVADVADSLQIPCATLWVQSCASFSAYYHYHHGLVPFPTESEPEIDVQLPGMPLLKYDEVPDFLHPRTPYPFFGTNILGQFKNLSKNFCILMDTFYELEHEIIDNMCKLCPIKPIGPLFKIPKDPSSNGITGNFMKVDDCKEWLDSRPTSTVVYVSVGSVVYLKQEQVTEMAYGILNSEVSFLWVLRPPSKRIGTEPHVLPEEFWEKAGDRGKVVQWSPQEQVLAHPATVGFLTHCGWNSTQEAISSGVPVITFPQFGDQVTNAKFLVEEFKVGVRLGRGELENRIITRDEVERALREITSGPKAEEVKENALKWKKKAEETVAKGGYSERNLVGFIEEVARKTGTK
modifications: GtCGT V93Q/Y193F (GtUF6CGT1V93Q/Y193F) variant
With B1 the “dcII production increase compared to wild-type GtCGT” value ([1]; FK strain) was 5.3 fold, the dcII production ([1]; FK-producing E. coli strain) was 0.74 mg CA eq/L and the aloesin production ([2]; BL21(DE3) with pWAS-anti-pabA, pRSF-RpALS, pBBR1-zwf and pCDF-GtCGT variant plasmid) was 0.06 µg/L. The “aloesin amount compared with strain containing GtCGT” value ([2]; flask culture) was “greater amount of aloesin than the strain containing GtCGT”, the conversion rate ([3]; apigenin to vitexin) was 8.1% and the vitexin produced ([3]; from 185.2 μM apigenin, 36 hours, with pBBR1-galU-pgm-ndk) was 15.0 µM. The naringenin-6-C-glucoside produced ([4]; from 0.5 mM naringenin, 36 hours, with pBBR1-galU-pgm-ndk) was 51.6 µM, the conversion rate ([4]; naringenin to naringenin-6-C-glucoside) was 10.3% and the isoorientin produced ([5]; from 70 μM luteolin, 36 hours, with pBBR1-galU-pgm-ndk) was 27.9 µM. The conversion rate ([5]; luteolin to isoorientin) was 27.9% and the “Vmax/KM value increase compared to GtCGT” value [6] was 46.8%.
